Laboratory results reported in publication PMC10625714 (Nature chemical biology, 2023).

Target: the molecule itself
Assay: cryo-EM structure

B1: nuclease-deficient AsCas12f (AsCas12f-D225A) (enzyme, Acidibacillus sulfuroxidans)
chain: MIKVYRYEIVKPLDLDWKEFGTILRQLQQETRFALNKATQLAWEWMGFSSDYKDNHGEYPKSKDILGYTNVHGYAYHTIKTKAYRLNSGNLSQTIKRATDRFKAYQKEILRGDMSIPSYKRDIPLDLIKENISVNRMNHGDYIASLSLLSNPAKQEMNVKRKISVIIIVRGAGKTIMDRILSGEYQVSASQIIHDDRKNKWYLNISYDFEPQTRVLDLNKIMGIALGVAVAVYMAFQHTPARYKLEGGEIENFRRQVESRRISMLRQGKYAGGARGGHGRDKRIKPIEQLRDKIANFRDTTNHRYSRYIVDMAIKEGCGTIQMEDLTNIRDIGSRFLQNWTYYDLQQKIIYKAEEAGIKVIKIDPQYTSQRCSECGNIDSGNRIGQAIFKCRACGYEANADYNAARNIAIPNIDKIIAESIK
With B1 the “stoichiometry N” value was 2.
